Three molecules from patent US20260207669A1 (TIANJIN MEDICAL UNIVERSITY GENERAL HOSPITAL, published 2026) can be followed below.

T1: human BAFFR overexpressed on 293T cells (human, UniProt Q96RJ3 1-184)
T1 construct: whole, on cells
T1 sequence (looked up): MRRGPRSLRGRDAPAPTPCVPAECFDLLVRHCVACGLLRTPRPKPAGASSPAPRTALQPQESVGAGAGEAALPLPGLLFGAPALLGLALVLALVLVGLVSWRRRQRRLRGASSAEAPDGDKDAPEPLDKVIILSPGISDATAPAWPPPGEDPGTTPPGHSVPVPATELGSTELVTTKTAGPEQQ

B1: NB467-88 (Fc fusion)
chain: EVQVVESGGGLVQPGGSLRLSCAASGFRLNYYAIGWFRQAPGKEREGVSCISSGGDRIYYADSVKGRFTISRDNAKNTVYLQMNSLKPEDTAVYYCAADLYYSGSYYYRSCNPAESGYWGQGTQVTVSS
notes: also called anti-BAFFR nanobody NB467-88; antibody NB467-88; not shown: Human IgG1 Fc fused to the VHH
B2: NB467-7 (Fc fusion)
chain: QVQLVESGGGSVHPGGSLRLSCAGSGFTLAGYAIGWFRQAPGKEREGVSCINSSGGSTYYADSVKGRFTISRDNAKNTVYLQMNSLKPEDTAVYYCAADVYYSGSYLYRSCNPTESKYWGQGTQVTVSS
notes: also called anti-BAFFR nanobody NB467-7; antibody NB467-7; not shown: Human IgG1 Fc fused to the VHH
B3: NB467-71 (Fc fusion)
chain: EVQVVESGGGLVQSGGSLRLSCVASGFNLDHYAIGWFRQIPGKEREGVSCISSGGDSTFYIDSVKGRFTISRDNAKNTVYLQMNSLKPEDTAVYHCAADVYYSGNYLYRSCNPHESKYWGQGTQVTVSS
notes: also called anti-BAFFR nanobody NB467-71; antibody NB467-71; not shown: Human IgG1 Fc fused to the VHH

The target of this assay is T1, human BAFFR overexpressed on 293T cells. As to the kind of experiment: flow cytometry on HEK-293T-BAFFR cells, anti-human Fc-647 secondary antibody. Here is the method: The cells were resuspended in a suitable volume of staining solution for flow cytometry, so that the final cell concentration per tube reached 2×10⁵ cells/mL.
The antibodies NB467-7, NB467-71, and NB467-88 produced in Example 1 and the control antibody were diluted to 200 nM, respectively. […] After incubation, the cells were washed once with a FACS buffer.
The anti-human FC-647 secondary antibody (Jackson, 109-605-003) was diluted according to the instructions, and 100 μL of the diluted secondary antibody was added to a sample tube. After uniform mixing, the system was incubated at 4° C. for 60 min. After incubation, the cells were washed 3 times with FACS, and the cell precipitate obtained by centrifugation was resuspended in 200 μL of PBS and detected by flow cytometry (Sony, SA3800).
As a reminder, the EC50 is the concentration giving half of the maximal effect. Higher therefore signals a less potent agent. B1 registered an EC50 of 1.31 nM.

B2: the concentration for a half-maximal effect (EC50) amounted to 6.73 nM.

Regarding B3, it took 10.6 nM to reach a half-maximal effect (EC50).
